# Reference: patent publication US20250333523A1 (Alector, published 2025)
# Residue numbers refer to the chain shown, from its start.
# T1: His/Avi-CynoIL18BP (recombinant cynomolgus IL-18BP with His and Avi tags) (cynomolgus monkey)
# T1 construct: also called cynomolgus IL-18BP-Avi-His
# T1 chain: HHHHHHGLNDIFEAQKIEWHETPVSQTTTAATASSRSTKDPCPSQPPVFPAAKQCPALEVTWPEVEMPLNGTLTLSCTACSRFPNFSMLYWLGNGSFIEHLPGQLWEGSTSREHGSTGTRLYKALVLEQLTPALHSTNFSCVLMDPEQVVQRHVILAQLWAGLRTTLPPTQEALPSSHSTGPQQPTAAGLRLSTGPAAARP
# T2: Avi/His-HuIL18BPa (recombinant human IL-18BP isoform A with Avi and poly-His tags) (human, biotinylated with BirA on the Avi tag in some assays)
# T2 construct: also called human IL-18BP-Avi-His
# T2 chain: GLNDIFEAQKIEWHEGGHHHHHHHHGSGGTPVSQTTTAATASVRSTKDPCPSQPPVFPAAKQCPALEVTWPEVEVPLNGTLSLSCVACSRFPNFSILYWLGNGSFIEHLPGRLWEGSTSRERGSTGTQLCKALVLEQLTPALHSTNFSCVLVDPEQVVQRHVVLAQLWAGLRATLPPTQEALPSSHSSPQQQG
# T3: mouse IL-18BPd-human IgG Fc (R&D Systems, Cat. #122-BP-100) (mouse; human, UniProt Q9Z0M9 29-193)
# T3 construct: Bought; also called mouse IL-18BPd-Fc Chimera
# T3 sequence (looked up): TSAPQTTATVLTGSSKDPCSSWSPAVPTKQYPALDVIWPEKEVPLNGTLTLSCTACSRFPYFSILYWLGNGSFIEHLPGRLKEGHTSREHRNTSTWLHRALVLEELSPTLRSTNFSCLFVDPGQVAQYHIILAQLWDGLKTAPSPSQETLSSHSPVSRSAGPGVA
# T4: Avi/HisMsIL18BPd (recombinant mouse IL-18BP with Avi and poly-His tags) (mouse, biotinylated with BirA on the Avi tag in some assays)
# T4 construct: also called murine IL-18BP; IL-18BP-Avi-His (mouse)
# T4 chain: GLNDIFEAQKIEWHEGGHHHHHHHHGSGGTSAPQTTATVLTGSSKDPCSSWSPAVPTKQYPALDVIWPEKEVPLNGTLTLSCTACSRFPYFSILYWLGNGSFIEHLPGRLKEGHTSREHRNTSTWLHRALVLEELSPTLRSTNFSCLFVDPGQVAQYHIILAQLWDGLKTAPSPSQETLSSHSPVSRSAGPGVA
# B1: anti-IL18BP antibody BP-13 (antibody, human IgG1, V domains shown)
# VH: QVQLQQSGAELVRPGASVTLSCKASGYTFTDYEMHWVKQTPVHGLEWIGPIDPETGDTAYNQKFKGQATLTADKSSSTAYMELSSLTSEDSAVYYCTRGSRGVFDYWGQGTALTVSS
# VL: DIVMTQSHKFMSTSVGDRVSITCKASQDVGTAVAWYQQKPGQSPKLLIYWASARHTGVPDRFTGSGSGTDFTLTISNVQSEDLADYFCQHYFNFPRTFGGGTKLEIT
# B2: anti-IL18BP antibody BP-03 (antibody, human IgG1, V domains shown)
# VH: EVQLQQSGPELVKPGASVKIPCKASGYTFTDYNMDWVKQSHGKSLEWIGNINTDNGGTVYNQKFKGKATLTVDQSSSTAYMELRSLTSEDTAVYYCARSDTTVVASRYYAMDYWGQGTSVTVSS
# VL: DIVLTQSPASLAMSLGKRATISCRASESVSIIGTNLIHWYQQKPGQPPKLLIYHASNLETGVPARFSGSGSRTDFTLTIDPVEEDDVAIYYCLQSRKIPPTFGGGTKLEIK
# B3: anti-IL18BP antibody BP-10 (antibody, human IgG1, V domains shown)
# VH: QVQLQQPGAERVEPGASVRLSCKTSGYTFTNYWMHWVKQRPGQGLEWIGMIHPESGSTNNNEKFKSKATLTVDKSSSTAYMQLSSLTSEDSAVYYCARWDRGYFDYWGQGTTLTVSS
# VL: DIVMTQSHKFMSTSVGDRVSITCKASQDVRSTVGWYQQRPGQSPKLLIYWTSTRHTGVPDRFTGSGSGTDYTLTISSVQAEDLALYYCQQHYSTPYTFGGGTTLEIK
# B4: anti-IL18BP antibody BP-01 (antibody, human IgG1, V domains shown)
# VH: QVQLQQSGPEVVRPGVSVKISCKGSGYTFTDFAMYWVKQSHAKSLEWIGVISTDNGDTSYNQKFKGKATMTVDKSSSTAYMELDRLTSEDSAIYYCARSRGPFDYWGQGTALTVSS
# VL: DIVMTQSHKFKSTSVGDRVNITCKASQDVGTAVAWYQQKPGQSPKLLIYWASTRHIGVPDRFTGSGSGTDFTLTIRNVQSEDLADYFCQRYSSYPWTFGGGTKLEIK
# B5: anti-IL18BP antibody BP-09 (antibody, human IgG1, V domains shown)
# VH: QVQLQQSGAELVRPGASVTLSCKASGYRFTDYAMHWVKQTPVHGLQWIGIIDPETGDTAFNQKFKGKATLTADKSSSTAYMELSSLTSEDSAVYYCTRPRGAMDYWGQGTSVTVSS
# VL: B4 VL with K11M, V15G, N20S, Q42I, I56T, T74A, R76S, R90Q, Y94H, W96Y
# B6: anti-IL18BP antibody BP-12 (antibody, human IgG1, V domains shown)
# VH: EVQLQQSGPELVKPGASVKMSCKTSGYTFTEYTMHWVKQSHGKSLEWIGGVNPNNGGTTYNQKFRDKATLTVDKSSSTTYMEVRTLTSDDSAVYYCAPLWRVFDYWGQGTTLTVSS
# VL: DIVMTQSHKFMSSSVGDRVSITCKASQDVGTAVAWYQQKPGQSPKLLIYWASTRHTGVPDRFTGSGSGTDFTLTISNVQSEDLADYFCHQFSRYPLTFGAGTKLELK
# B7: anti-IL18BP antibody BP-14 (antibody, human IgG1, V domains shown)
# VH: QVQLVQSGAEVKKPGASVKVSCKASGYTFTGYYMHWVRQAPGQGLEWMGIINPRGGSTSHAQKFQGRVTMTRDTSTSTVYMELSSLRSEDTAVYYCARGLELHWFDPWGQGTLVTVSS
# VL: DIQMTQSPSSLSASVGDRVTITCRASQNIRSWLAWYQQKPGKAPKLLIYAASSLQSGVPSRFSGSGSGTDFTLTISSLQPEDFATYYCQQANSFPYTFGQGTKLEIK
# B8: anti-IL18BP antibody BP-07 (antibody, human IgG1, V domains shown)
# VH: EVQLQQSGPELVKPGASVKISCRASGFTITDYNMDWVRQSHGKSLEWIGNINLNNGGSIYNQKFKGKATLTIDKSSSTAYMELRSLTSEDTAVYYCARSDTTVVASRYYAMDYWGQGTSVTVSS
# VL: B2 VL with A64V
# Target: T1, His/Avi-CynoIL18BP (recombinant …)
# Test: SPR Carterra LSA, IgG immobilized
row,Binder,Kd [nM]
1,B1,0.3
2,B2,2.34
3,B3,0.02
4,B4,12.1
5,B5,1.4
6,B6,0.5

# Target: T2, Avi/His-HuIL18BPa (recombinant human …)
# Test: SPR Carterra LSA, IgG immobilized
row,Binder,Kd [nM]
1,B1,7.2
2,B7,3.2
3,B2,4.1
4,B8,2.7
5,B3,1
6,B5,2.01
7,B6,7.6

# Target: T2, Avi/His-HuIL18BPa (recombinant human …)
# Test: blocking ELISA, competitor human IL-18
row,Binder,blocking ELISA signal normalized to isotype control (=1)
1,B1,0.128 ratio to isotype control
2,B7,0.069 ratio to isotype control
3,B2,0.151 ratio to isotype control
4,B8,0.147 ratio to isotype control
5,B3,0.067 ratio to isotype control
6,B4,0.076 ratio to isotype control
7,B6,0.117 ratio to isotype control

# Target: T3, mouse IL-18BPd-human IgG Fc (R&D …)
# Test: blocking ELISA, competitor mouse IL-18
row,Binder,blocking ELISA signal normalized to isotype control (=1)
1,B1,0.53 ratio to isotype control
2,B7,0.202 ratio to isotype control
3,B2,0.157 ratio to isotype control
4,B8,0.156 ratio to isotype control
5,B3,0.326 ratio to isotype control
6,B4,0.316 ratio to isotype control
7,B6,0.351 ratio to isotype control

# Target: T1, His/Avi-CynoIL18BP (recombinant …)
# Test: cell-based or functional assay
Binder,"% of Max Gamma, human NK cells [%]","EC50 of IFNγ release, human NK cells [nM]"
B1,54.1,39.7
B3,55.2,6
B4,52.2,12.5
B5,46.6,51.7
B6,76.5,70

# Target: T1, His/Avi-CynoIL18BP (recombinant …)
# Test: ELISA, coated IL-18BP
row,Binder,ELISA binding ratio (fold-change over background) [fold over background]
1,B1,49
2,B2,36.5
3,B8,31.1
4,B3,48.1
5,B4,47.4
6,B5,44.9
7,B6,44

# Target: T2, Avi/His-HuIL18BPa (recombinant human …)
# Test: ELISA, coated IL-18BP
row,Binder,ELISA binding ratio (fold-change over background) [fold over background]
1,B1,44.7
2,B7,36.3
3,B2,41.9
4,B8,38.5
5,B3,42.1
6,B4,40.7
7,B5,44.4
8,B6,43.2

# Target: T4, Avi/HisMsIL18BPd (recombinant mouse …)
# Test: ELISA, coated IL-18BP
row,Binder,ELISA binding ratio (fold-change over background) [fold over background]
1,B1,16.9
2,B7,45.1
3,B2,41.6
4,B8,39.3
5,B3,40.8
6,B4,36.7
7,B5,32.7
8,B6,34.2

# Target: T1, His/Avi-CynoIL18BP (recombinant …)
# Test: blocking ELISA, competitor rhesus IL-18
row,Binder,blocking ELISA signal normalized to isotype control (=1)
1,B1,0.331 ratio to isotype control
2,B2,0.996 ratio to isotype control
3,B8,0.999 ratio to isotype control
4,B3,0.28 ratio to isotype control
5,B4,0.795 ratio to isotype control
6,B5,0.315 ratio to isotype control
7,B6,0.36 ratio to isotype control

# Target: T2, Avi/His-HuIL18BPa (recombinant human …)
# Test: cell-based or functional assay
Binder,"EC50 of IFNγ release, human PBMC [nM]","Fold change of IFNγ at 10 µg/ml vs baseline, human PBMC [fold]"
B1,3.89,11.8
B7,3.47,8.86
B2,1.14,11.3
B8,1.66,16.6
B3,2.05,15.5
B4,0.75,14.9
B5,1.41,15.4
B6,6.09,10.3

# Target: T4, Avi/HisMsIL18BPd (recombinant mouse …)
# Test: cell-based or functional assay
Binder,"EC50 of IFNγ release, mouse splenocytes [nM]","Fold change of IFNγ at 10 µg/ml vs baseline, mouse splenocytes [fold]"
B1,640,1.74
B7,2.93,3.49
B2,4.49,5.93
B8,8.16,2.78
B3,538,2.85
B4,8.36,1.65
B5,426,2.88
B6,15.7,1.88
